Data: patent US20180071366A1
Numbered stars: 1 amine (or outer) side, 2 acyl side, 3 side chain; on linkers, the order of the positions; unused ones are H or OH. Bridge positions count the residues as written; N and C are the ends. Square brackets hold non-standard residues; d marks the D form. * marks the point of attachment. C20 diacid = O=C(O)CCCCCCCCCCCCCCCCCCC(=O)*; γGlu = O=C(O)[C@H](CCC(=O)[*:2])N[*:1]; Hyp = O=C(O)[C@@H]1C[C@@H](O)CN1; NMeI = CC[C@H](C)[C@H](NC)C(=O)O; Sar = CNCC(=O)O

B1: Compound 41 (peptide)
peptide: {C20 diacid-γGlu}-RDGTATKATQRLADFLQRSSF[Sar]A[NMeI]LSSTEVGSNT[Hyp]-NH2
modifications: lactam 2-7
SMILES: CC[C@H](C)[C@@H](C(=O)N[C@@H](CC(C)C)C(=O)N[C@@H](CO)C(=O)N[C@@H](CO)C(=O)N[C@H](C(=O)N[C@@H](CCC(=O)O)C(=O)N[C@H](C(=O)NCC(=O)N[C@@H](CO)C(=O)N[C@@H](CC(N)=O)C(=O)N[C@H](C(=O)N1C[C@H](O)C[C@H]1C(N)=O)[C@@H](C)O)C(C)C)[C@@H](C)O)N(C)C(=O)[C@H](C)NC(=O)CN(C)C(=O)[C@H](Cc1ccccc1)NC(=O)[C@H](CO)NC(=O)[C@H](CO)NC(=O)[C@H](CCCNC(=N)N)NC(=O)[C@H](CCC(N)=O)NC(=O)[C@H](CC(C)C)NC(=O)[C@H](Cc1ccccc1)NC(=O)[C@H](CC(=O)O)NC(=O)[C@H](C)NC(=O)[C@H](CC(C)C)NC(=O)[C@H](CCCNC(=N)N)NC(=O)[C@H](CCC(N)=O)NC(=O)[C@@H](NC(=O)[C@H](C)NC(=O)[C@@H]1CCCCNC(=O)C[C@H](NC(=O)[C@H](CCCNC(=N)N)NC(=O)CC[C@H](NC(=O)CCCCCCCCCCCCCCCCCCC(=O)O)C(=O)O)C(=O)NCC(=O)N[C@@H]([C@@H](C)O)C(=O)N[C@@H](C)C(=O)N[C@@H]([C@@H](C)O)C(=O)N1)[C@@H](C)O
B2: Compound 42 (peptide)
peptide: {C20 diacid-γGlu}-RDGTATKATQRLADFLQRSSF[Sar]A[NMeI]LSSTETGSNT[Hyp]-NH2
modifications: lactam 2-7
SMILES: CC[C@H](C)[C@@H](C(=O)N[C@@H](CC(C)C)C(=O)N[C@@H](CO)C(=O)N[C@@H](CO)C(=O)N[C@H](C(=O)N[C@@H](CCC(=O)O)C(=O)N[C@H](C(=O)NCC(=O)N[C@@H](CO)C(=O)N[C@@H](CC(N)=O)C(=O)N[C@H](C(=O)N1C[C@H](O)C[C@H]1C(N)=O)[C@@H](C)O)[C@@H](C)O)[C@@H](C)O)N(C)C(=O)[C@H](C)NC(=O)CN(C)C(=O)[C@H](Cc1ccccc1)NC(=O)[C@H](CO)NC(=O)[C@H](CO)NC(=O)[C@H](CCCNC(=N)N)NC(=O)[C@H](CCC(N)=O)NC(=O)[C@H](CC(C)C)NC(=O)[C@H](Cc1ccccc1)NC(=O)[C@H](CC(=O)O)NC(=O)[C@H](C)NC(=O)[C@H](CC(C)C)NC(=O)[C@H](CCCNC(=N)N)NC(=O)[C@H](CCC(N)=O)NC(=O)[C@@H](NC(=O)[C@H](C)NC(=O)[C@@H]1CCCCNC(=O)C[C@H](NC(=O)[C@H](CCCNC(=N)N)NC(=O)CC[C@H](NC(=O)CCCCCCCCCCCCCCCCCCC(=O)O)C(=O)O)C(=O)NCC(=O)N[C@@H]([C@@H](C)O)C(=O)N[C@@H](C)C(=O)N[C@@H]([C@@H](C)O)C(=O)N1)[C@@H](C)O

Key:
[1] = target: recombinant human calcitonin receptor (hCT-R) (human), P30988; test: cell-based or functional assay
[2] = target: recombinant human amylin 3 receptor (hAMYR3) (human), P30988; test: cell-based or functional assay
recombinant human amylin 3 receptor (hAMYR3) (human), P30988, sequence (P30988 25-474, chain 1 of 2): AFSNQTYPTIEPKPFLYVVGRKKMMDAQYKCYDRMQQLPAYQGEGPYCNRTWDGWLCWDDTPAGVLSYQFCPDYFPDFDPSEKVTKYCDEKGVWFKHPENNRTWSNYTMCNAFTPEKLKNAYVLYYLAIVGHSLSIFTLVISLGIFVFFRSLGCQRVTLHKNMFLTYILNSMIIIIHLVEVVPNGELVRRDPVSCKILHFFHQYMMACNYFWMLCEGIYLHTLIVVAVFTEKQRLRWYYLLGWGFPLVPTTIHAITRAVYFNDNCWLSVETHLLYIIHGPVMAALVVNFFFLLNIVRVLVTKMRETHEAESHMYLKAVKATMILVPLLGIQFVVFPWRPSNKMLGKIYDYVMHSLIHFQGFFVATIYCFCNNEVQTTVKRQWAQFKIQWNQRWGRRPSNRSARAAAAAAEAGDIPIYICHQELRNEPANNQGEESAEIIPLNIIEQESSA
recombinant human amylin 3 receptor (hAMYR3) (human), P30988, sequence (O60896 24-148, chain 2 of 2, further chain): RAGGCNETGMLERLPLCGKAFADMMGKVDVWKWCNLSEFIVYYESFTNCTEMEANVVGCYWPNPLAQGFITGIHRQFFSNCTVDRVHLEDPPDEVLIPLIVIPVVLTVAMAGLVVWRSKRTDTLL

recombinant human calcitonin receptor (hCT-R) (human), P30988, sequence (P30988 25-474): as the sequence (P30988 25-474, chain 1 of 2) above

Row | Binder | hCT-R EC50 [nM] (cAMP formation, 1321N1 cells expressing hCT-R) [1] | hAMYR3 EC50 [nM] (cAMP formation, 1321N1 cells expressing hAMYR3) [2]
1 | B1 | 0.095 | 0.024
2 | B2 | 0.006 | 0.003
